Test results: article PMC8386010, “Nanobody-armed T cells endow CAR-T cells with cytotoxicity against lymphoma cells” (Cancer Cell International, 2021)
No end group written: not given here.

Tests used:
anti-CD20 Nb1 = target: T1, anti-CD20 Nb1 (Bactrian camel); experiment: SPR; Biacore T200; nanobody captured by immobilised mouse anti-human IgG (Fc) antibody; human CD19/CD20 antigen injected in 7 serial twofold dilutions from 10 µg/ml, 30 µl/min, association 120 s, dissociation 300 s; conditions: both partners purified
T1 construct: nanobody selected from a Bactrian camel naive phage display library; In SPR it was captured by an anti-human IgG (Fc) antibody; also called anti-CD20 nanobody; source: cloned into the pCZN1 vector, expressed and purified

human CD19 antigen [1] = target: T2, human CD19 antigen (Homo sapiens, UniProt P15391)
T2 sequence (P15391 20-291): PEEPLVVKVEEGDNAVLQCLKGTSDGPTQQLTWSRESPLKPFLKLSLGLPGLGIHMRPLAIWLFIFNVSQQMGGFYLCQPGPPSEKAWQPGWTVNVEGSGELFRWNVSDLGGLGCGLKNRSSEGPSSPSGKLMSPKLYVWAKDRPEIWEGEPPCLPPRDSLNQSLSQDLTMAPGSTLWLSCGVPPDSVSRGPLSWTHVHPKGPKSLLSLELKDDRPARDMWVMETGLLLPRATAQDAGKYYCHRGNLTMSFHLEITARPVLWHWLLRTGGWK

human CD19 antigen [2] = target: T2, human CD19 antigen; experiment: SPR; Biacore T200; nanobody captured by immobilised mouse anti-human IgG (Fc) antibody; human CD19/CD20 antigen injected in 7 serial twofold dilutions from 10 µg/ml, 30 µl/min, association 120 s, dissociation 300 s; conditions: both partners purified

B1: human CD20 antigen (natural protein)
chain: KISHFLKMESLNFIRAHTPYINIYNCEPANPSEKNSPSTQYCYSIQS
modifications: cysteine pairing not given here; also: biotinylated for panning, position not given here
B1 gave a Kd (anti-CD20 Nb1) of 0.147 µM.

B2: Anti-CD19 Nb2 (VHH)
VHH: QVQLQESGGGSVQTGGSLRLSCAASGFSYTGHHMGWFRQVAAQEREWVGSIYTDPGTTFYADSVKGRFTISQDVAKKMVYLQMNNLKPTDTGIYFCAAEPVADGPPLMSRDRCFGSWGQGTQVTVSS
B2: binds (human CD19 antigen [1]).

B3: anti-CD19 Nb1 (VHH)
VHH: QVQLQESGGGSVQAGGSLRLSCAVRRPTDSRNCMAWFRQAPGEQREAVAGIDIYRTTGYAESVKGRFTISQDNAKNTLFLQMNSLKPEDSGTYYCAAARPCKYGSEWRRSASDFLYWGQGTQVTVSS
notes: nanobody selected from a Bactrian camel naive phage display library; In SPR it was captured by an anti-human IgG (Fc) antibody; also called anti-CD19 nanobody; source: cloned into the pCZN1 vector, expressed and purified
Work on B3 yielded a Kd (human CD19 antigen [2]) of 0.29 µM.

B4: Anti-CD19 Nb3 (VHH)
VHH: QVQLQESGGGSVQGGGSLRLSCAVSGATYMIQYMGWFRQAPGKEREGVAVIHSDDRTTYADSVKGRFTISQDNANHTLYLQMNSLKPEDTGMYVCASSLSKGGYYRGDLVPGQFTYWGRGTQVTVSS
B4: binds (human CD19 antigen [1]).
